{
  "source": "patent US20240383982A1",
  "about": "(Genmab, published 2024)",
  "binders": {"B1": {"name": "bsIgG1-huCD3-H101G-FEALxB7H4-C1-N52S-FEAR (bispecific antibody)", "heavy 1": "not shown", "light 1": "not shown", "heavy 2": "QVQLQQWGAGLLKPSETLSLTCAVYGGSFSGYYWSWIRQPPGKGLEWIGEISHSGSTNYNPSLKSRVTISIDTSKNQFSLKLTSVTAADTAVFYCARGLFNWNFDSWGQGTLVTVSSASTKGPSVFPLAPSSKSTSGGTAALGCLVKDYFPEPVTVSWNSGALTSGVHTFPAVLQSSGLYSLSSVVTVPSSSLGTQTYICNVNHKPSNTKVDKRVEPKSCDKTHTCPPCPAPEFEGGPSVFLFPPKPKDTLMISRTPEVTCVVVAVSHEDPEVKFNWYVDGVEVHNAKTKPREEQYNSTYRVVSVLTVLHQDWLNGKEYKCKVSNKALPAPIEKTISKAKGQPREPQVYTLPPSREEMTKNQVSLTCLVKGFYPSDIAVEWESNGQPENNYKTTPPVLDSDGSFFLYSRLTVDKSRWQQGNVFSCSVMHEALHNHYTQKSLSLSPGK", "light 2": "DIQMTQSPSSLSASVGDRVTITCRASQGIRNDLGWYQQKPGKAPKRLIYGASSLQSGVPSRFSGSGSGTEFTLTISSLQPEDFATYYCLQHNSYPRTFGQGTTVEIKRTVAAPSVFIFPPSDEQLKSGTASVVCLLNNFYPREAKVQWKVDNALQSGNSQESVTEQDSKDSTYSLSSTLTLSKADYEKHKVYACEVTHQGLSSPVTKSFNRGEC", "notes": "also called bslgG1-huCD3-H101G-FEALxB7H4-C1-N52S-FEAR; BslgG1-huCD3-H101G-FEALxB7H4-C1-N52S-FEAR"}, "B2": {"name": "IgG1-B7H4-C1-N52S-FEAR (antibody, V domains shown)", "VH": "QVQLQQWGAGLLKPSETLSLTCAVYGGSFSGYYWSWIRQPPGKGLEWIGEISHSGSTNYNPSLKSRVTISIDTSKNQFSLKLTSVTAADTAVFYCARGLFNWNFDSWGQGTLVTVSS", "VL": "DIQMTQSPSSLSASVGDRVTITCRASQGIRNDLGWYQQKPGKAPKRLIYGASSLQSGVPSRFSGSGSGTEFTLTISSLQPEDFATYYCLQHNSYPRTFGQGTTVEIKR", "notes": "Full length human IgG1 with L234F, L235E, D265A, K409R (FEAR) heavy chain constant region and kappa light chain; bivalent, monospecific; also called IgG1-B7H4-C1-052S-FEAR"}, "B3": {"name": "IgG1-B7H4-C5-FEAR (antibody, V domains shown)", "VH": "QLQLQESGPGLVKPSETLSLTCTVSGGSIKSGSYYWGWIRQPPGKGLEWIGNIYYSGSTYYNPSLRSRVTISVDTSKNQFSLKLSSVTAADTAVYYCAREGSYPNQFDPWGQGTLVTVSS", "VL": "EIVMTQSPATLSVSPGERATLSCRASQSVSSNLAWYQQKPGQAPRLLIYGASTRATGIPARFSGSGSGTEFTLTISSLQSEDFAVYYCQQYHSFPFTFGGGTKVEIKR", "notes": "Full length IgG1 FEAR, kappa; variable domains from US20190085080A1"}},
  "key": {"[1]": {"target": "T1, recombinant hIgG1 Fc-tagged cynomolgus monkey B7H4 (Creative BioMart, cat. no. VTCN1-1517R) (cynomolgus monkey, UniProt Q7Z7D3 25-259 (human entry))", "T1 construct": "Bought protein; also called cynomolgus monkey B7H4 extracellular domain", "T1 sequence": "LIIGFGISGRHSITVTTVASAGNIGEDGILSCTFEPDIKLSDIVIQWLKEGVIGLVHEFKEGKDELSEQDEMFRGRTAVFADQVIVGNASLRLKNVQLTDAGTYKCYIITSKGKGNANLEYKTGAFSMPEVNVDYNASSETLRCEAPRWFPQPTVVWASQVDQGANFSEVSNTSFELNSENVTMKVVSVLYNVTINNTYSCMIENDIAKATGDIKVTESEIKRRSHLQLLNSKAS", "test": "BLI (Octet HTX); Fc-tagged cynomolgus B7H4 coupled to AR2G sensor, bispecific antibody in solution (monovalent B7H4 binding); 2nd experiment (average of n = 3)", "experimental": "In addition, the affinity of for cynomolgus monkey B7H4 was determined by BLI. […] Amine Reactive 2nd Generation (AR2G) biosensors (FortéBio, cat. no. 18-5092) were activated by reaction with 20 mM EDC (N-(3-Dimethylaminopropyl)-N′-ethylcarbodiimide hydrochloride) (FortéBio, cat. no. 18-1033) and 10 mM s-NHS (N-hydroxysulfosuccinimide sodium salt) (FortéBio, cat. no. 18-1067) for 300 s. The activated sensors were loaded with 10 μg/mL recombinant hIgG1 Fc-tagged cynomolgus monkey B7H4 (Creative BioMart, cat. no. VTCN1-1517R) in 10 mM Sodium Acetate pH 4.0 (FortéBio, cat. no. 18-1068) for 600 s and quenched with 1 M ethanolamine pH 8.5 (FortéBio, cat. no. 18-1071) for 300 s. […] A molecular mass of 150 kDa of the antibodies was used for calculations. For each antibody a reference sensor was used, which was incubated with Sample Diluent instead of antibody.\nData were acquired using Data Acquisition Software v9.0.0.49d (FortéBio) and analyzed with Data Analysis Software v9.0.0.12 (FortéBio). Data traces were corrected per antibody by subtraction of the reference sensor. The Y-axis was aligned to the last 10 s of the baseline, Interstep Correction alignment to dissociation and Savitzky-Golay filtering were applied. Data traces with a response<0.05 nm were excluded from analysis. The data was fitted with the 1:1 Global Full fit model using a window of interest for the association and dissociation times set at 100 s and 200 s respectively.\nThe experiment was performed as described above, with some small exceptions."}, "[2]": {"target": "T2, human B7H4, full length, on cells (human, UniProt Q7Z7D3 25-282)", "T2 construct": "Uniprot Q7Z7D3; Used for transfected HEK cells and for the B7H4-expressing human tumor cell lines (endogenous B7H4); also called VTCN1", "T2 sequence": "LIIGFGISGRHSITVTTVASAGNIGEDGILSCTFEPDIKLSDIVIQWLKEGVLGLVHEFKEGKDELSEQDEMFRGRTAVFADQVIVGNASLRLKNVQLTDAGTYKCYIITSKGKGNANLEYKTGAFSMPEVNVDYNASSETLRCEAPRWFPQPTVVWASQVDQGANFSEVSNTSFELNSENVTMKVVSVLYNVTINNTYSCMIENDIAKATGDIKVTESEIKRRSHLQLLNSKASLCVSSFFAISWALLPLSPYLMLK", "test": "flow cytometry on NIH-OVCAR-3 tumor cells [panel NIH-Ovcar-3 cells]", "experimental": "(§1) Cells (3×10⁴ cells/well) were incubated in polystyrene 96-well round-bottom plates (Greiner bio-one, cat. no. 650180) with serial dilutions of antibodies (ranging from 0.000458 to 30 μg/mL in 4-fold dilution steps) in 100 μL PBS/0.1% BSA/0.02% azide (staining buffer) at 4° C. for 30 min. Experiments were performed in technical duplicate. After washing twice in staining buffer, cells were incubated in 50 μL secondary antibody at 4° C. for 30 min. As a secondary antibody, R-Phycoerythrin (PE)-conjugated goat-anti-human IgG F(ab′)₂ (1:500 in FACS buffer; Jackson ImmunoResearch Laboratories, Inc., West Grove, PA, cat. no. 109-116-098), was used. Cells were washed twice in staining buffer, re-suspended in 30 μL FACS buffer containing Topro-3 (1:10,000 dilution) and analyzed on an iQue Screener (Intellicyt Corporation, USA). Binding curves were analyzed using non-linear regression (sigmoidal dose-response with variable slope) using GraphPad Prism V7.02 software (GraphPad Software, San Diego, CA, USA).\nBinding was analyzed by flow cytometry as described above."}, "[3]": {"target": "T3, mouse (Mus musculus) B7H4, full length, on HEK-293F cells (mouse, UniProt Q7TSP5 25-257)", "T3 construct": "Uniprot Q7TSP5; also called mouse B7H4", "T3 sequence": "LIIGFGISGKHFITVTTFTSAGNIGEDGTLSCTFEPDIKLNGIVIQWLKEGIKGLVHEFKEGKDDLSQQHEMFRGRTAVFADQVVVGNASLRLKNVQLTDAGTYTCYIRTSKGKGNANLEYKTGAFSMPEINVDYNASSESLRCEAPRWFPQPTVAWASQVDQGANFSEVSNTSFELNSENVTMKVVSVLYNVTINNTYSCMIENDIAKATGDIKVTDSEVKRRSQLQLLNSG", "test": "flow cytometry, HEK-293F cells transfected with mouse B7H4 [panel Mouse B7H4]", "experimental": "as §1"}, "[4]": {"target": "T4, pig (Sus scrofa) B7H4, full length, on HEK-293F cells (pig, UniProt Q7Z7D3 26-282 (human entry))", "T4 construct": "Uniprot F1SAY4; also called pig B7H4", "T4 chain": "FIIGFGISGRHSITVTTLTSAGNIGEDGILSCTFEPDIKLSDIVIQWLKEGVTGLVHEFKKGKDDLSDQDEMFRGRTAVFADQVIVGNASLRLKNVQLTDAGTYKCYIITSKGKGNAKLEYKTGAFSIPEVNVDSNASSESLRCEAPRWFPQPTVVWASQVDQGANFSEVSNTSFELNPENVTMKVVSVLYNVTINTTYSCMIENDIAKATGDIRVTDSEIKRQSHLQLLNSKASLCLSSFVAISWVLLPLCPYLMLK", "test": "flow cytometry, HEK-293F cells transfected with pig B7H4 [panel Pig B7H4]", "experimental": "as §1"}, "[5]": {"target": "T5, rat (Rattus norvegicus) B7H4, full length, on HEK-293F cells (rat, UniProt Q501W4 25-257)", "T5 construct": "Uniprot Q501W4; also called rat B7H4", "T5 sequence": "T3 sequence with R109H, Q228E", "test": "flow cytometry, HEK-293F cells transfected with rat B7H4 [panel Rat B7H4]", "experimental": "as §1"}},
  "note": "Changes are numbered by the printed parent chain. Numbers in names are those of the source.",
  "data": [
    {"binder": "B1", "values": [
      {"measurement": "Kd", "setting": "[1]", "result": 25, "unit": "nM"},
      {"measurement": "koff", "setting": "[1]", "result": 0.0027, "unit": "s⁻¹"},
      {"measurement": "kon", "setting": "[1]", "result": 120000, "unit": "M⁻¹ s⁻¹"},
      {"measurement": "EC50 (read off the curve)", "setting": "[2]", "result": "~2", "unit": "µg/mL"}
    ]},
    {"binder": "B2", "values": [
      {"measurement": "EC50 (read off the curve)", "setting": "[3]", "result": "~0.3", "unit": "µg/mL"}
    ]},
    {"binder": "B3", "values": [
      {"measurement": "binding result", "setting": "[4]", "result": "binds"},
      {"measurement": "binding result", "setting": "[5]", "result": "binds"}
    ]}
  ]
}
